This is an account of results in patent US20210046160A1 (Synthorx, Inc., priority 2019, published 2021).

For data set [1], the system named is pSTAT5 and proliferation in CD8+ T, NK and Treg cells. Description: Pharmacodynamics in peripheral blood compartment (pSTAT5, Ki-67, cell counts), Example 5. As to conditions: mice. The class given is in vivo, C57BL/6 mice. The text has this: (§1) Terminal blood samples were collected via cardiac puncture at the points indicated. […] Plasma and blood cells (in both studies) and tumors in study E3826-U1803 were collected for PK and PD analyses.
STAT5 phosphorylation and induction of cell proliferation (the early molecular marker Ki-67 and cell counts) was used as pharmacodynamics readouts to assess the pharmacological profile of P65_30kD relative to its pharmacokinetics.

A short description of data set [2]: PK study E3826-U1704 in naïve C57BL/6 mice (human IL-2 ELISA of plasma). The class given is in vivo. As to conditions: for t½: 0.3 mg/kg. On the procedure: as §1
Bioanalysis of plasma samples was performed using a qualified human IL-2 ELISA assay (Abcam, Cambridge, UK). Concentrations of Aldesleukin, E62_30kD and P65_30kD and the internal standard in samples derived from plasma were determined using an ELISA assay. […] The PK data were imported into Phoenix WinNonlin v6.4 (Certara/Pharsight, Princeton, N.J.) for analysis. The group mean plasma concentration versus time data were analyzed with noncompartmental methods using an IV bolus administration model.

The nature of data set [3]: MTD / toxicology study E3826-U1802 in naïve Balb/c mice (hematology, histopathology, organ weight, cytokines). The class given is in vivo. As to conditions: Balb/c mice. The protocol:
A dose ranging study of P65_30kD was conducted in naïve female Balb/c mice at Crown Biosciences, Inc. (San Diego, Calif.). […] Blood samples were drawn via sub mandibular vein at 8 time points (0.25, 1, 4, 12, 24, 34, 48 & 72 h).
A major of toxicity associated with high-dose aldesleukin is vascular leak syndrome and associated Cytokine Release Syndrome (CRS). […] The analysis performed was hematology, histopathology, organ weight, and cytokine analyses.

The target of data set [4] is T1, IL-2 receptor βγ complex (IL-2Rβ and IL-2Rγ subunits) (Homo sapiens, UniProt P14784+P31785).
T1 construct: host or cells: recombinant human U2OS cell line (PathHunter)
T1 sequence (P14784 27-551): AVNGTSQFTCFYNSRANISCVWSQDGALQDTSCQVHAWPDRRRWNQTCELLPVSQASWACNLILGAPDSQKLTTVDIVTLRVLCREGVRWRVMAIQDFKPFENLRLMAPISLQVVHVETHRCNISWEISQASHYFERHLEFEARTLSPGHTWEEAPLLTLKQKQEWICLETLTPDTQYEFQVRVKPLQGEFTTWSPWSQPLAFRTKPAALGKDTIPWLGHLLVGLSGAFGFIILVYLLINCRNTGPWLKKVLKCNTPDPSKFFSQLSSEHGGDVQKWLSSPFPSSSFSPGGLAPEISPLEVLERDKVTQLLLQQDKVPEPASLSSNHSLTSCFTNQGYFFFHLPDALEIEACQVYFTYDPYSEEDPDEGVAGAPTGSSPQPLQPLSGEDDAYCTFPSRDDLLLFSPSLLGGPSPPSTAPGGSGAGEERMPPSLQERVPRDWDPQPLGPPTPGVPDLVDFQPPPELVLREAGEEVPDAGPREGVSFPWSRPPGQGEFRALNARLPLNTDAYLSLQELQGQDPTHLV
T1 sequence (P31785 23-369): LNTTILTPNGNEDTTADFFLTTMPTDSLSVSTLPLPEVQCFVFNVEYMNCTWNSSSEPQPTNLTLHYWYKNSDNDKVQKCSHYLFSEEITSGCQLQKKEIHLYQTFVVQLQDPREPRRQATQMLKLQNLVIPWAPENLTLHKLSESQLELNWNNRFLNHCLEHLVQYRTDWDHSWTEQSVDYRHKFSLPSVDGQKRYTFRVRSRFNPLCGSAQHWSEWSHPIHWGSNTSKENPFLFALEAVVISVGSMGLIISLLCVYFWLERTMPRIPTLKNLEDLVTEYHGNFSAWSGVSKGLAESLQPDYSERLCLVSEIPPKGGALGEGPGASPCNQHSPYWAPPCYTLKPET
The experiment in a line: PathHunter IL-2 Cytokine Receptor assay, agonist mode, βγ cell line. As to conditions: for EC50: IL2Rα-negative U2OS cell line, 10 kD PEGylated conjugates, * = 30 kD; for βγ/αβγ ratio: ratio of the EC50 values. The class given is cell-based. On the procedure:
(§2) PathHunter cell lines were expanded from freezer stocks according to standard procedures. Cells were seeded in a total volume of 20 μL into white walled, 384-well microplates and incubated for the appropriate time prior to testing.
(§3) For agonist determination, cells were incubated with sample to induce response. Intermediate dilution of sample stocks was performed to generate 5× sample in assay buffer. About 5 μL of 5× sample was added to cells and incubated at 37° C. for 6 to 16 hours depending on the assay. Vehicle concentration was 1%.
(§4) Assay signal was generated through a single addition of 12.5 or 15 μL (50% v/v) of PathHunter Detection reagent cocktail for agonist and antagonist assays respectively, followed by a one hour incubation at room temperature. For some assays, activity was detected using a high sensitivity detection reagent (PathHunter Flash Kit) to improve assay performance. In these assays, an equal volume of detection reagent (25 or 30 μL) was added to the wells, followed by a one hour incubation at room temperature. Microplates were read following signal generation with a PerkinElmer Envision™ instrument for chemiluminescent signal detection.
(§5) Compound activity was analyzed using CBIS data analysis suite (ChemInnovation, CA). For agonist mode assays, percentage activity was calculated using the following Formula:
(§6) % Activity=100%×(mean RLU of test sample−mean RLU of vehicle control)/(mean MAX RLU control ligand−mean RLU of vehicle control).
(§7) A second cell line has been further engineered to express the IL-2Rα subunit. […] The assay was run in agonist mode to determine the EC50 of each test article, and comparison of dose-response curve profiles between IL2Rα positive and negative cell types allows determination of the contribution of IL2Rα to the observed activity.

For data set [5], the target named is T2, IL-2 receptor αβγ complex (Homo sapiens, UniProt P01589+P14784+P31785).
T2 construct: host or cells: recombinant human U2OS cell line (PathHunter), further engineered to express IL-2Rα
T2 sequence (P01589 22-272): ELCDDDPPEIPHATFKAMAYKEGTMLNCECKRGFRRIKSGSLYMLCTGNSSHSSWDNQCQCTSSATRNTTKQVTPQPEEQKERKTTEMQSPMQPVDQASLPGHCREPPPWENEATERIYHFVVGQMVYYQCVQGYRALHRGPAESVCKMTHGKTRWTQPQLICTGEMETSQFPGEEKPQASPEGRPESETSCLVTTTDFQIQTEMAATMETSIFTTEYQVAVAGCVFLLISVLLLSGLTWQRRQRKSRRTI
T2 sequence (P14784 27-551): T1 sequence (P14784 27-551)
T2 sequence (P31785 23-369): T1 sequence (P31785 23-369)
Description: PathHunter IL-2 Cytokine Receptor assay, agonist mode, cell line further expressing IL-2Rα. The class given is cell-based. As to conditions: IL2Rα-positive U2OS cell line; 10 kD PEGylated conjugates, * = 30 kD. On the procedure: as §2, §3, §4, §5, §6, §7

[6] abbreviates: C57BL/6 female mice, single IV bolus 0.3 mg/kg, E62_5 kD from a separate study.

aldesleukin [reference compound]: the “pSTAT5 induction returned to baseline after” value in data set [1] came to 2 h. In data set [2] (setting [6]), this substance came in with an AUC0-t of 229 ng·h/mL, an AUCINF of 230 ng·h/mL, a CL of 21.67 mL/min/kg and a Cmax of 884 ng/mL. For the same substance, in data set [2] (setting [6]), the time to peak (Tmax) came to 1.8 min, the “Vss (distribution volume)” value came to 0.39 L/kg and the t½ was 34.4 min. The substance further gave a t½ in data set [2] (C57BL/6 female mice, single IV bolus 0.3 mg/kg, E62_5 kD from a separate study, listed as aldesleukin) of 34.2 min. Moreover, the “mean plasma concentrations measurable out to (post-dose)” value in data set [2] (single IV bolus, 120 h = last measured time point) came out at 4 h. In data set [3], the “systemic levels of IFNγ” value is listed as “transient elevation”. The “plasma IL-5 levels” value in data set [3] (dose range 0.01-5.0 mg/kg) is reported as “elevated plasma IL-5 levels starting at 1 mg/kg to 5 mg/kg”. Further, the “hematology, histopathology or body weights relative to vehicle control” value in data set [3] (P65_30kD single IV 0.01-5.0 mg/kg, aldesleukin IV BID × 3) was “Abnormalities were not observed”.
“R38: Table 2: 10 kD PEGylated IL-2 conjugate at site R38 [Compound R38]”: in data set [4], the half-maximal effective concentration (EC50) was determined as 4.16 nM and the βγ/αβγ ratio was determined as 25. For the same substance, the EC50 in data set [5] was found to be 0.165 nM.
Take “E68: Table 2: 10 kD PEGylated IL-2 conjugate at site E68 [Compound E68]”: in data set [4], the EC50 was 7.7 nM and the βγ/αβγ ratio was 86. The same substance registered an EC50 in data set [5] of 0.0893 nM.
“T41: Table 2: 10 kD PEGylated IL-2 conjugate at site T41 [Compound T41]”: the EC50 came to 6.37 nM in data set [4] and 0.0489 nM in data set [5]. The βγ/αβγ ratio in data set [4] stood at 130.
The matching figures for “K43: Table 2: 10 kD PEGylated IL-2 conjugate at site K43 [Compound K43]”: 9.84 nM, 0.131 nM and 75.
As for “V69: Table 2: 30 kD PEGylated IL-2 conjugate at site V69 [Compound V69]”, the values for the EC50 in data set [4] and in data set [5] were 9.99 nM and 0.083 nM, respectively. Further, the βγ/αβγ ratio in data set [4] was 121.
The matching figures for “Y45: Table 2: 30 kD PEGylated IL-2 conjugate at site Y45 [Compound Y45]”: 9.06 nM, 0.11 nM and 83.
The matching figures for “F42: Table 2: 10 kD PEGylated IL-2 conjugate at site F42 [Compound F42]”: 6.09 nM, 0.515 nM and 12.
The matching figures for “E62: Table 2: 10 kD PEGylated IL-2 conjugate at site E62 [Compound E62]”: 3 nM, 1.5 nM and 2.
“K35: Table 2: 10 kD PEGylated IL-2 conjugate at site K35 [Compound K35]”: in data set [4], the concentration giving a half-maximal response (EC50) was 6.75 nM and the βγ/αβγ ratio was 45. Besides, the midpoint of the response in data set [5], the EC50, lay at 0.15 nM.
